Test results from patent US20210338751A1 (LUMEN BIOSCIENCE, published 2021).

B1: anti-TcdB VHH 5D (VHH)
VHH: QVQLVESGGGLVQPGGSLRLSCEASGFTLDYYGIGWFRQPPGKEREAVSYISASARTILYADSVKGRFTISRDNAKNAVYLQMNSLKREDTAVYYCARRRFSASSVNRWLADDYDVWGRGTQVAVSS
B2: anti-TcdB VHH B12 (VHH)
VHH: VQLVESGGGLVQAGDSLTLSCAASESTFNTFSMAWFRQAPGKEREYVAAFSRSGGTTNYADSVKGRATISTDNAKNTVYLHMNSLKPEDTAVYFCAADRPAGRAYFQSRSYNYWGQGTQVTVSS
B3: 5D+E3+7F (other)
VHH 5D: QVQLVESGGGLVQPGGSLRLSCEASGFTLDYYGIGWFRQPPGKEREAVSYISASARTILYADSVKGRFTISRDNAKNAVYLQMNSLKREDTAVYYCARRRFSASSVNRWLADDYDVWGRGTQVAVSSEPKTPKPQ
VHH E3: QVQLVESGGGLVQTGGSLRLSCASSGSIAGFETVTWSRQAPGKSLQWVASMTKTNNEIYSDSVKGRFIISRDNAKNTVYLQMNSLKPEDTGVYFCKGPELRGQGIQVTVSSEPKTPKPQ
VHH 7F: DVQLQASGGGLVQAGGSLRLSCVASARTFSSYAMGWFRQAPGKEREFVAAISWSGASTDYADSVKGRFTISRDNAKKTVYLQMNTLKPEDTAVYYCAAHHITPTGSYYYSEPLPVDMVYDYWGQGTQVTVSSEPKTKTTTSGR
B4: 5D+E3+2D (other)
VHH 5D: B3 VHH 5D
VHH E3: B3 VHH E3
VHH 2D: QVKLQQSGGGLVQAGGSLRLSCAASGTFSRYAMGWFRQAPGKEREFVAAINWTGGSTYYADSVKGRFTISGDNAKNTVYLQMNSLKPGDTAVYYCAAEVHPGDYGLTYMQSQYEYDYWGQGTQVTVSSEPKTPKPTTSGR
B5: anti-TcdB VHH E3 (VHH)
VHH: B3 VHH E3
B6: E3+7F+2D (other)
VHH E3: B3 VHH E3
VHH 7F: B3 VHH 7F
VHH 2D: B4 VHH 2D
B7: 5D+7F+5E (other)
VHH 5D: B3 VHH 5D
VHH 7F: B3 VHH 7F
VHH 5E: VQLVESGGGLVQAGGSLRLSCAASGLMFGAMTMGWYRQAPGKEREMVAYITAGGTESYSESVKGRFTISRINANNMVYLQMTNLKVEDTAVYYCNAHNFWRTSRNWGQGTQVTVSSEPKTPKP
B8: anti-TcdB VHH C6 (VHH)
VHH: VQLVESGGGLVQAGESLRLSCVVSESIFRINTMGWYRQTPGKQREVVARITLRNSTTYADSVKGRFTISRDDAKNTLYLKMDSLKPEDTAVYYCHRYPLIFRNSPYWGQGTQVTVSS
B9: Nano26-MBP (VHH, not shown: large carriers)
VHH: QVQLQESGGGLVQPGGSLRLSCTAPRIIFFMYDVGWYRQAPEKQRELVAQINSDVSTKYADSVKGRFTISRDNAKRTVYLQMNDLKPEDAAVYYCNVRRASADYWGQGTQVTVSS
notes: also called SP834
B10: Nano94-TxnA (VHH)
VHH: QVQLQESGGGLVQAGGSLRLSCAASGRMFSINSMGWYRQAPGKERELVATISEAGTTTYADSVRGRFTIARDNAKNTVYLQMNSLNPEDTAVYYCNAYIQLDSTIWFRAYWGQGTQVTVSS
notes: also called SP835
B11: Nano94-MBP (VHH)
VHH: B10 VHH
notes: also called SP836
B12: anti-TcdB VHH 7F (VHH)
VHH: QVQLVESGGGLVEAGGSLRLSCVVTGSSFSTSTMAWYRQPPGKQREWVASFTSGGAIKYTDSVKGRFTMSRDNAKKMTYLQMENLKPEDTAVYYCALFINAVSGSSWGRGTQVTVSS

Tests used:
[1] = biological target: T1, Clostridium difficile toxin B (TcdB) (Clostridium difficile, UniProt P18177 2-2366); assay: method not stated
T1 construct: also called TcdB toxin

[2] = biological target: T1, Clostridium difficile toxin B (TcdB); assay: assay not given; unlabelled list of VHH names and values at the right of the sheet, the same values stand under KD in Table 6 of the text, which prints the unit of 5D as mM
[3] = biological target: T1, Clostridium difficile toxin B (TcdB); assay: cell-based or functional assay
[4] = biological target: T2, recombinant HuNoV GII.10 P domain (Human Norovirus (HuNoV) GII.10); assay: ELISA on recombinant HuNoV GII.10 P domain, Spirulina-expressed Ni-NTA purified protein after freeze-drying
T2 construct: domain: Protrusion (P) domain

[5] = biological target: T3, recombinant HuNoV GII.2 P domain (Human Norovirus (HuNoV) GII.2); assay: BLI, biotin tagged GII.2 P domain at 100 nM as antigen
T3 construct: domain: Protrusion (P) domain

[6] = biological target: T2, recombinant HuNoV GII.10 P domain; assay: ELISA on recombinant HuNoV GII.10 P domain, Spirulina-expressed Ni-NTA purified protein stored at 4 C
GI.1 VLPs = biological target: T4, GI.1 VLPs (human norovirus genotype GI.1); assay: blocking of GI.1 VLP binding to pig gastric mucin (HBGA)
T4 construct: virus-like particle

[7] = biological target: T5, recombinant HuNoV GI.1 P domain (Human Norovirus (HuNoV) GI.1); assay: ELISA on recombinant HuNoV GI.1 P domain, Spirulina-expressed Ni-NTA purified protein stored at 4 C
T5 construct: domain: Protrusion (P) domain

[8] = biological target: T5, recombinant HuNoV GI.1 P domain; assay: ELISA on recombinant HuNoV GI.1 P domain, Spirulina-expressed Ni-NTA purified protein after freeze-drying
[9] = biological target: T5, recombinant HuNoV GI.1 P domain; assay: ELISA on recombinant GI.1 P domain

Binder	Kd [1] [nM]	Adherence Score at TcdB 0.00001 ng/ml, VHH 100 ng/ml total; none: 7 [3]	Adherence Score at TcdB 0.0001 ng/ml, VHH 100 ng/ml total; none: 7 [3]	Adherence Score at TcdB 0.001 ng/ml, VHH 100 ng/ml total; none: 6 [3]	Adherence Score at TcdB 0.01 ng/ml, VHH 100 ng/ml total; none: 5 [3]	Adherence Score at TcdB 0.1 ng/ml, VHH 100 ng/ml total; none: 2 [3]	Adherence Score at TcdB 1 ng/ml, VHH 100 ng/ml total; none: 1 [3]	Adherence Score at TcdB 10 ng/ml, VHH 100 ng/ml total; none: 1 [3]	other results
B1	0.65								Kd [2]: 0.65 nM
B2	0.07								
B3		7	7	7	7	7	7	3	
B4		7	7	7	7	7	6.1	2.1	
B5	0.03								
B6		7	7	7	7	6	4	1	
B7		7	7	7	7	7	4	1	
B8	0.89								
B9									EC50 [4]: 2.29 nM; Kd [5]: 21.9 nM; kon [5]: 172000 M⁻¹ s⁻¹; EC50 [6]: 2.75 nM
B10									IC50 (read off the curve) (GI.1 VLPs): ~2 µg/mL; EC50 [7]: 27.3 nM; EC50 [8]: 36.7 nM; EC50 [9]: 50.1 nM
B11									IC50 (read off the curve) (GI.1 VLPs): ~2 µg/mL
B12	8.8								
